Here are results for two molecules from patent US20240342704A1 (BERKELEY LIGHTS, published 2024).

For the assay, the target named is T1, HLA-A*02:01 MHC Class I complex (biotinylated) (human, biotinylated).
T1 construct: The MHC molecule as the partner of the peptide in the groove; It was captured on streptavidin DynaBeads; also called pHLA; pMHC
Description: pMHC on streptavidin beads held in T cell culture media at 37 C for 0-48 h; W6/32-APC MFI by flow cytometry fitted to an exponential decay. As to the method:
To wells of a 96-well, round-bottom microplate, 0.2 mL of T Cell Culture Media (Advanced RPMI, 10% Human AB Serum, 1 mM GlutaMax) was added and equilibrated to 37° C. in a standard tissue culture incubator. To three wells each, four microliters of each pHLA-beads was added to a well. The process of adding beads to wells was repeated at time intervals resulting in beads that were held in the media at 37° C. for 48, 32, 24, 16, 8, 4, 2, and 1 hr. The plate was centrifuged at 400 g for 5 minutes, and the media removed by flicking the plate. A sample of beads held at 4° C. for the duration of the time course was then added to three wells to create the 0 hr time point.
An APC-conjugated, conformationally sensitive antibody which only recognizes pMHC molecules in the folded, complex conformation (Clone W6/32, Biolegend) was then added to each well. The antibody was diluted 50-fold from the manufacturer stock into Assay Buffer, and 0.05 mL of antibody mixture was added to each well. […]
Antibody binding to the beads was then detected on a FACSCelesta with High-Throughput Sampler (BD Biosciences). […] Approximately 25,000 bead events were recorded for each sample. The Median Fluorescence Intensity (MFI) in the APC channel for the pHLA-beads in each sample was then recorded. […] The half-lives for the pHLA complexes were then calculated from the fitted decay constant.

B1: SLC45A2-derived peptide antigen SLYSYFQKV (SEQ ID NO: 5) (peptide)
peptide: SLYSYFQKV
notes: Synthetic 9-mer peptide, dissolved in DMSO and diluted in PBS for the exchange reaction; also called Immunogenic SLC45A2-derived peptide; SLC45A2 antigen
On to B1, for which the half-life is around 17 h.

B2: TCL1-derived peptide antigen SLLPIMWQLY (SEQ ID NO: 6) (peptide)
peptide: SLLPIMWQLY
notes: Synthetic 10-mer peptide; also called Non-Immunogenic TCL1-derived peptide
B2 yielded a half-life of around 0.5 h.
